Experimental data reported in publication PMC2171544.

Molecular target: recombinant Xenopus TACC3/maskin (TACC3-WT), full length, His6-tagged (Xenopus laevis) (UniProt Q9PTG8)
Experiment: sucrose density gradient centrifugation + SEC

recombinant Xenopus TACC3/maskin (TACC3-WT), full length, His6-tagged (Xenopus laevis), sequence (Q9PTG8 whole entry): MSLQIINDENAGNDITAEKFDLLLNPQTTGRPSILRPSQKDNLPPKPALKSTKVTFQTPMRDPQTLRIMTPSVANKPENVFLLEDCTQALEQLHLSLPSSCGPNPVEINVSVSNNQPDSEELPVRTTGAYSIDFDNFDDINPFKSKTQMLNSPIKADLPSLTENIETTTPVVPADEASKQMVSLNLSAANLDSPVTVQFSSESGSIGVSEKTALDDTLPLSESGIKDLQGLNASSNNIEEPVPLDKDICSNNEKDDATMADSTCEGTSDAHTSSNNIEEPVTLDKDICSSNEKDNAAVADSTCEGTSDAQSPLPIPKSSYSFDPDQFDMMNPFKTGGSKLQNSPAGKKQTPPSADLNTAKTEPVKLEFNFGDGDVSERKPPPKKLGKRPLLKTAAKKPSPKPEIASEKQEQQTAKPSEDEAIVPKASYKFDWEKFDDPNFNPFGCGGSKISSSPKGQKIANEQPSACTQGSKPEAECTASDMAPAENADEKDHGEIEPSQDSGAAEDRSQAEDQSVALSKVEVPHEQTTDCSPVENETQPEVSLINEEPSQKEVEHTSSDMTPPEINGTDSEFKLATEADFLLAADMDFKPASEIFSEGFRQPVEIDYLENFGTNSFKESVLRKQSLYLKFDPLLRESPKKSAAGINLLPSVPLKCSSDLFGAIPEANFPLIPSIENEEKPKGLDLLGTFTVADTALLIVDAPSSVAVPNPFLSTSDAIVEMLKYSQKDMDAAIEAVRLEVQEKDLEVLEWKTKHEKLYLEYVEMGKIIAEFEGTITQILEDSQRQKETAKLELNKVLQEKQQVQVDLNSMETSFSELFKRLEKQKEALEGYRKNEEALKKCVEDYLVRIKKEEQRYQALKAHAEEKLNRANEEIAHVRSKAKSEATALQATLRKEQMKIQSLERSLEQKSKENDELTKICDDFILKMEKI

stoichiometry N: 1
Substance: recombinant XMAP215, Q9PT63 1-2065
